Here are results for two proteins from article PMC10841842, “Single-molecule quantitation of RNA-binding protein occupancy and stoichiometry defines a role for Yra1 (Aly/REF) in nuclear mRNP organization” (Cell reports, 2023).

The data set deals with the molecule itself. The experiment in a line: pull-down; mRNP-SiMPull: lysate of cryo-ground yeast cross-linked with 0.2% formaldehyde, PrA-tagged bait pulled down on rabbit IgG Dynabeads at 8°C for 10 min (mTBT16 buffer: 20 mM HEPES-KOH pH 7.4, 12.5 mM KOAc, 2 mM MgCl2, 0.5% Triton X-100, 0.1% Tween 20), eluted by HRV3C protease, captured on a slide by mNG, HA or Yra1 antibody, TIRF imaging; spot counts and photobleaching steps, no-PrA control subtracted ….

B1: Mft1, mNG-tagged (natural protein, S. cerevisiae, UniProt P33441 1-392, looked up)
chain: MPLSQKQIDQVRTKVHYSEVDTPFNKYLDILGKVTKLTGSIINGTLSNDDSKIEKLTEQNISQLKESAHLRFLDLQSSIDTKKVADENWETCQQETLAKLENLKDKLPDIKSIHSKLLLRIGKLQGLYDSVQVINREVEGLSEGRTSLVVTRAEWEKELGTDLVKFLIEKNYLKLVDPGLKKDSSEERYRIYDDFSKGPKELESINASMKSDIENVRQEVSSYKEKWLRDAEIFGKITSIFKEELLKRDGLLNEAEGDNIDEDYESDEDEERKERFKRQRSMVEVNTIENVDEKEESDHEYDDQEDEENEEEDDMEVDVEDIKEDNEVDGESSQQEDNSRQGNNEETDKETGVIEEPDAVNDAEEADSDHSSRKLGGTTSDFSASSSVEEVK
notes: Mft1, THO complex subunit, S. cerevisiae; also called THO complex subunit Mft1; source: S. cerevisiae BY4741/2-derived tagged strain, in cryo-ground cell lysate
On to B1, for which the “stoichiometry N” value was determined as 2.

B2: Hpr1-mNG (natural protein, S. cerevisiae, UniProt P17629 1-752, looked up)
chain: MSNTEELIQNSIGFLQKTFKALPVSFDSIRHEPLPSSMLHASVLNFEWEPLEKNISAIHDRDSLIDIILKRFIIDSMTNAIEDEEENNLEKGLLNSCIGLDFVYNSRFNRSNPASWGNTFFELFSTIIDLLNSPSTFLKFWPYAESRIEWFKMNTSVEPVSLGESNLISYKQPLYEKLRHWNDILAKLENNDILNTVKHYNMKYKLENFLSELLPINEESNFNRSASISALQESDNEWNRSARERESNRSSDVIFAADYNFVFYHLIICPIEFAFSDLEYKNDVDRSLSPLLDAILEIEENFYSKIKMNNRTRYSLEEALNTEYYANYDVMTPKLPVYMKHSNAMKMDRNEFWANLQNIKESDDYTLRPTIMDISLSNTTCLYKQLTQEDDDYYRKQFILQLCFTTNLIRNLISSDETRNFYKSCYLRENPLSDIDFENLDEVNKKRGLNLCSYICDNRVLKFYKIKDPDFYRVIRKLMSSDEKFTTAKIDGFKEFQNFRISKEKIPPPAFDETFKKFTFIKMGNKLINNVWKIPTGLDKIEQEVKKPEGVYEAAQAKWESKISSETSGGEAKDEIIRQWQTLRFLRSRYLFDFDKVNEKTGVDGLFEEPRKVEALDDSFKEKLLYKINQEHRKKLQDAREYKIGKERKKRALEEEASFPEREQKIKSQRINSASQTEGDELKSEQTQPKGEISEENTKIKSSEVSSQDPDSGVAGEFAPQNTTAQLENPKTEDNNAATSNISNGSSTQDMK
notes: Hpr1, THO complex component, S. cerevisiae; End of the tag read from the name; also called THO complex component Hpr1; source: S. cerevisiae BY4741/2-derived tagged strain, in cryo-ground cell lysate; not shown: mNeonGreen (mNG), C-terminal, kept
Regarding B2, the “stoichiometry N” value was determined as 2.
